“Also recorded” adds a separate entry of the source.

One series has as its target P29274. In words: SEC. Background: Size exclusion chromatography separates by hydrodynamic size, large species first.
The series “SEC” deals with the molecule itself. Kind of series: SEC.
Series [1] concerns the molecule itself. Kind of series: SDS-PAGE and Western blot densitometry. For orientation: Immunoblotting shows a protein as a band on a membrane.

B1: A2AR-N359ΔC with the ERR:AAA mutations (domain or fragment)
chain: MPIMGSSVYITVELAIAVLAILGNVLVCWAVWLNSNLQNVTNYFVVSLAAADIAVGVLAIPFAITISTGFCAACHGCLFIACFVLVLTQSSIFSLLAIAIDRYIAIRIPLRYNGLVTGTRAKGIIAICWVLSFAIGLTPMLGWNNCGQPKEGKNHSQGCGEGQVACLFEDVVPMNYMVYFNFFACVLVPLLLMLGVYLRIFLAARRQLKQMESQPLPGERARSTLQKEVHAAKSLAIIVGLFALCWLPLHIINCFTFFCPDCSHAPLWLMYLAIVLSHTNSVVNPFIYAYRIREFRQTFRKIIRSHVLRQQEPFKAAGTSARVLAAHGSDGEQVSLRLNGHPPGVWANGSAPHPAAAPN
Turning to B1, in the series with P29274, the “HMW oligomer level (relative to monomer)” value is recorded as “ERR:AAA: 0.38”; the “total oligomer level (HMW oligomer and dimer, relative to monomer)” value is given as “ERR:AAA: 0.85”. Moreover, the “dimer level (relative to monomer)” value in the series “SEC” was 0.48 arbitrary units.

B2: human adenosine A2A receptor, full-length wild type (receptor)
chain: MPIMGSSVYITVELAIAVLAILGNVLVCWAVWLNSNLQNVTNYFVVSLAAADIAVGVLAIPFAITISTGFCAACHGCLFIACFVLVLTQSSIFSLLAIAIDRYIAIRIPLRYNGLVTGTRAKGIIAICWVLSFAIGLTPMLGWNNCGQPKEGKNHSQGCGEGQVACLFEDVVPMNYMVYFNFFACVLVPLLLMLGVYLRIFLAARRQLKQMESQPLPGERARSTLQKEVHAAKSLAIIVGLFALCWLPLHIINCFTFFCPDCSHAPLWLMYLAIVLSHTNSVVNPFIYAYRIREFRQTFRKIIRSHVLRQQEPFKAAGTSARVLAAHGSDGEQVSLRLNGHPPGVWANGSAPHPERRPNGYALGLVSGGSAQESQGNTGLPDVELLSHELKGVCPEPPGLDDPLAQDGAGVS
As to B2, in series [1], the “dimer level (relative to monomer), with 5 mM TCEP” value turned out to be 0.51 arbitrary units and the “dimer level (relative to monomer), without TCEP” value is 1.14 arbitrary units. Besides, in the series with P29274, the “HMW oligomer level (relative to monomer)” value is on record as “ctrl: 0.88”; the “total oligomer level (HMW oligomer and dimer, relative to monomer)” value is “ctrl: 1.37; also recorded: WT: 1.34”.

The record behind these values is paper doi:10.1101/2020.12.21.423144 (bioRxiv, 2020).
